Assay results from US20260184766A1.

Legend:
[1] = biological target: SARS-CoV-2 S variant K417N/E484K/N501Y (B.1.351, SA variant; beta lineage) carried by pseudotyped virus (SARS-CoV-2 B.1.351), P0DTC2; assay: cell-based or functional assay
[2] = biological target: SARS-CoV-2 S variant 484K carried by pseudotyped virus (SARS-CoV-2), P0DTC2; assay: cell-based or functional assay
[3] = biological target: SARS CoV-2 omicron variant spike RBD (SARS-CoV-2 omicron variant); assay: ELISA on omicron variant RBD (panel RBD), OD450
[4] = biological target: SARS CoV-2 omicron variant recombinant stabilized spike trimer (SARS-CoV-2 omicron variant)

Binder | EC50 (pM), pseudovirus luciferase assay [1] [pM] | Neutralization of Pseudovirus (ng/mL; parameter not named) [1] [ng/mL] | EC50 (pM), pseudovirus luciferase assay [2] [pM] | EC50 (read off the curve) [3] [nM] | EC50 (read off the curve) [4] [nM]
SKD chimeric bovine-human IgG1 (ultralong CDR3) (antibody) VH: QVQLRESGPSLVKPSQTLSLTCTASGFSLSDKAVGWVRQAPGKALEWLGSIDTGGNTGYNPGLKSRLSITKDNSKSQVSLSVSSVTTEDSATYYCTTVHQRTSEKRSCPGGSSRRYPSGASCDVSGGACACYVSNCRGVLCPTLNEIVAYTYEWHVDAWGQGLLVTVSS VL: QAVLNQPSSVSGSLGQRVSITCSGSSSNVGNGYVSWYQLIPGSAPRTLIYGDTSRASGVPDRFSGSRSGNTATLTISSLQAEDEADYFCASAEDSSSNAVFGSGTTLTVL | > 1000 | > 1000 | > 1000 |  | 
R2D9 chimeric bovine-human IgG1 (ultralong CDR3) (antibody) VH: QVQLRESGPSLVKPSQTLSLTCTASGFSLSDKAIGWVRQAPGKALEWLGSIDTRGNTGYNPGLKSRLSITKDSSKSQVSLSVNSVTTEDSATYLCAIVQQITHKTCPNGYNWFDRCCSWDGTCGDGCCSNRAWPSGNGRADSSIGETYGYEFHVAAWGQGLLVTVSS VL: QAVLNQPSSVSGSLGQRVSITCSGSSSNVGNGYVSWYQLIPGSAPRTLIYGDTSRASGVPDRFSGSRSGNTATLTISSLQAEDEADYFCASAEDSSSNAVFGSGTTLTVL |  |  |  | 0.4 | 0.4
SKM chimeric bovine-human IgG1 (ultralong CDR3) (antibody) VH: QVQLRESGPSLVKPSQTLSLTCTASGFSLSDKAVGWVRQAPGKALEWLGSIDTGGNTGYNPGLKSRLSITKDNSKSQVSLSVSSVTTEDSATYYCTTVHQETLRSCPDGYIDNSGCTADWGCAALDCWRRRFGYHSTDPSHYTGATYIYTYSLHIDAWGQGLLVTVSS VL: QAVLNQPSSVSGSLGQRVSITCSGSSSNVGNGYVSWYQLIPGSAPRTLIYGDTSRASGVPDRFSGSRSGNTATLTISSLQAEDEADYFCASAEDSSSNAVFGSGTTLTVL | > 1000 | > 1000 | > 1000 |  | 
R4C1 chimeric bovine-human IgG1 (ultralong CDR3) (antibody) VH: QVQLRESGPSLVKPSQTLSLTCTASGFSLSDKAVGWVRQAPGKPLEWLGSIDTAENTGYNPGLKSRLSITKDNSKSQVSLSVSSVTTEDSATYYCATVHQKTRKEKNCPDGYIYSSNTASGYDCGVWICRRVGSAFCSRTGDYTSPSEFDIYEFYVEGWGQGLLVTVSS VL: QAVLNQPSSVSGSLGQRVSITCSGSSSNVGNGYVSWYQLIPGSAPRTLIYGDTSRASGVPDRFSGSRSGNTATLTISSLQAEDEADYFCASAEDSSSNAVFGSGTTLTVL |  | 375 |  |  | 
